Test results reported in patent US20260241018A1 (BIOCYTOGEN PHARMACEUTICALS BEIJING, published 2026).

T1: dog 5T4 expressed on CHO-S cells (CHO-d5T4 cells) (dog)
T1 chain: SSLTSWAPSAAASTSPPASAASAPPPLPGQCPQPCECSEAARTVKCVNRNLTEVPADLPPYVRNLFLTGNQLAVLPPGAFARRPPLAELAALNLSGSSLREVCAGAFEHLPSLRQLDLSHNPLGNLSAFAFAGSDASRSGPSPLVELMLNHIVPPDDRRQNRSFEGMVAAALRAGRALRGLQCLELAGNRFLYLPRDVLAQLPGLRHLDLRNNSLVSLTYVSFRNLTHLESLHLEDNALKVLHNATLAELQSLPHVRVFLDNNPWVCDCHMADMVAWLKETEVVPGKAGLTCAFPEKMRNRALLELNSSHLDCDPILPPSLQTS

T2: human 5T4 expressed on CHO-S cells (CHO-h5T4 cells) (human, UniProt Q13641 32-355)
T2 sequence: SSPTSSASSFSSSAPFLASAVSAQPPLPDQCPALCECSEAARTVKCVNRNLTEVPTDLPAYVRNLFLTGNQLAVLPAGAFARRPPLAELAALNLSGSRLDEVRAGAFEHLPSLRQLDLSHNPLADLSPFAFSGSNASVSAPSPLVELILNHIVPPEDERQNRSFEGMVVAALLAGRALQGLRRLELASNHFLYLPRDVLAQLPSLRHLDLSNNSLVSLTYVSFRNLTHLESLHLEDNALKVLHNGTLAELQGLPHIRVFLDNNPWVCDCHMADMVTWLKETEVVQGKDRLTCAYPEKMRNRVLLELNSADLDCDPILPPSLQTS

T3: mouse 5T4 expressed on CHO-S cells (CHO-m5T4 cells) (mouse, UniProt Q9Z0L0 32-361)
T3 sequence: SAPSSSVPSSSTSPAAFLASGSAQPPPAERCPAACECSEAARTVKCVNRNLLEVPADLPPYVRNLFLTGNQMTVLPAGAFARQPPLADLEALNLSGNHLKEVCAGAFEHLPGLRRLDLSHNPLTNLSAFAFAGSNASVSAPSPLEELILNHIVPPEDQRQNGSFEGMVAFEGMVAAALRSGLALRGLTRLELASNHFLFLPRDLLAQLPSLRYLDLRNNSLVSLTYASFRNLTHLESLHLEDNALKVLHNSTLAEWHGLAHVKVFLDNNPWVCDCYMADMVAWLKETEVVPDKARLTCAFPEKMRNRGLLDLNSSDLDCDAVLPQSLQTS

T4: monkey (Macaca fascicularis) 5T4 expressed on CHO-S cells (CHO-fas5T4 cells) (monkey (Macaca fascicularis), UniProt Q4R8Y9 35-355)
T4 construct: also called monkey 5T4
T4 sequence: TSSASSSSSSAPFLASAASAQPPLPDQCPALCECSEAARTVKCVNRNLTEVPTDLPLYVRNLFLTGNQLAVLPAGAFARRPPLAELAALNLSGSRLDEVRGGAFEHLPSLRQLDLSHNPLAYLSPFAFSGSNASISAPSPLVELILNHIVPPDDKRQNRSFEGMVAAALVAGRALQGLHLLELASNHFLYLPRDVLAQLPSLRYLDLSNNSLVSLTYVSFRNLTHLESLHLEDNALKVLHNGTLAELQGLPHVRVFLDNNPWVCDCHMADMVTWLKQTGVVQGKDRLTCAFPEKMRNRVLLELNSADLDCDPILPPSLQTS

T5: His-tagged 5T4 protein of human (h5T4, ACRO Biosystems Inc., Cat #: TPG-H52E5) (human, UniProt Q13641 32-355)
T5 construct: Bought protein; not shown: His tag
T5 sequence (looked up): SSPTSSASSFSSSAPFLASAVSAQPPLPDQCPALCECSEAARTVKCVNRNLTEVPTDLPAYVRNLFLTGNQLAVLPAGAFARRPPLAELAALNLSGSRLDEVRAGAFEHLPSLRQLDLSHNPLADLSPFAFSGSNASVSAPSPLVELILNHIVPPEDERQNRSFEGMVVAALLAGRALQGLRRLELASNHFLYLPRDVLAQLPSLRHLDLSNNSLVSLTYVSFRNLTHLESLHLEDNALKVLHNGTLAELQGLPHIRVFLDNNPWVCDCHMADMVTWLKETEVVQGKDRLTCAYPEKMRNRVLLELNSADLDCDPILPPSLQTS

T6: His-tagged 5T4 protein of monkey (fas5T4, ACRO Biosystems Inc., Cat #: TPG-C52H3) (monkey, UniProt Q4R8Y9 35-355)
T6 construct: Bought protein
T6 sequence: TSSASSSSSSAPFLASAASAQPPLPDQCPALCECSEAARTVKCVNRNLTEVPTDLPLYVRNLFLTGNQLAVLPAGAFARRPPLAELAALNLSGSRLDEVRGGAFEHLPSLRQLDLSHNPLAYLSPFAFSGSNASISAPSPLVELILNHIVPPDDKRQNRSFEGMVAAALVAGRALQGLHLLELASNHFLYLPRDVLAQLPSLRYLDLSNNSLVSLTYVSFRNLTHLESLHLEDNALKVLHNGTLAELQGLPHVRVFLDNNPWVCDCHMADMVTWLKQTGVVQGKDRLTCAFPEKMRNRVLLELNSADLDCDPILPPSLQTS

T7: His-tagged 5T4 protein of mouse (m5T4, ACRO Biosystems Inc., Cat #: TPG-M52H3) (mouse, UniProt Q9Z0L0 32-361, limits assumed)
T7 construct: Bought protein; not shown: His tag
T7 sequence (looked up): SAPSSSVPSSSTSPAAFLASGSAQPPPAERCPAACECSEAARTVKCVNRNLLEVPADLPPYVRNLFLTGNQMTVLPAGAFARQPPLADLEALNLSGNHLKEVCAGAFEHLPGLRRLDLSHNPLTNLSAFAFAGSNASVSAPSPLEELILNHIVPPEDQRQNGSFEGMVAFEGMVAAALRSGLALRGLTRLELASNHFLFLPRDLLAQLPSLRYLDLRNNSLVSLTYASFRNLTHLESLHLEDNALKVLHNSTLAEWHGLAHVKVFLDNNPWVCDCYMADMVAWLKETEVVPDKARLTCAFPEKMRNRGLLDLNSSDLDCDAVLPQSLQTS

T8: h5T4-His protein (human, UniProt Q13641 32-355, limits assumed)
T8 construct: also called His-tagged human 5T4 protein; not shown: His tag
T8 sequence (looked up): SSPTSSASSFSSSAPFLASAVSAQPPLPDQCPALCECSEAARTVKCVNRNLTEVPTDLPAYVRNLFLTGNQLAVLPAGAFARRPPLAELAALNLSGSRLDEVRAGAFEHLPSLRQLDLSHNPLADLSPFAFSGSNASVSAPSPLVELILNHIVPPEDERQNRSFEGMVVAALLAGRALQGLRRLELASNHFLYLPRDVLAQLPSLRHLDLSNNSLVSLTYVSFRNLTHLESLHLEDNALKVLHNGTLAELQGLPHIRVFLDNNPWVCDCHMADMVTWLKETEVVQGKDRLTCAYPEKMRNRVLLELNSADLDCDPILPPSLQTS


Legend:
[1] = molecular target: T1, dog 5T4 expressed on CHO-S cells …; test: flow cytometry, CHO-d5T4 cells
Description: (§1) CHO-h5T4 cells, CHO-m5T4 cells, CHO-fas5T4 cells or CHO-d5T4 cells were transferred to a 96-well plate at a density of 2×10⁵ cells/well respectively. The anti-5T4 antibodies were added to the 96-well plate, and incubated at 4° C. for 30 min. Then, the cells were incubated with the secondary antibody anti-hlgG-Fc-Alex Flour 647 (RL1-H) (Jackson ImmunoResearch Laboratories, Inc., Cat #: 109-606-170) at 4° C. in the dark for 15 minutes before flow cytometry analysis.

[2] = molecular target: T2, human 5T4 expressed on CHO-S cells …; test: flow cytometry, CHO-h5T4 cells
Description: as §1

[3] = molecular target: T3, mouse 5T4 expressed on CHO-S cells …; test: flow cytometry, CHO-m5T4 cells
Description: as §1

[4] = molecular target: T4, monkey (Macaca fascicularis) 5T4 …; test: flow cytometry, CHO-fas5T4 cells
Description: as §1

[5] = molecular target: T5, His-tagged 5T4 protein of human (h5T4, …); test: SPR (Biacore 8K), antibody captured on Protein A chip, His-tagged 5T4 as analyte
Description: (§2) Purified anti-5T4 antibodies were diluted to 2 μg/mL and then injected into the Biacore™ 8K biosensor at 10 μL/min for about 50 seconds to achieve a desired protein density (e.g., about 50 response units (RU)). His-tagged 5T4 protein at a concentration of 200 nM was then injected at 30 μL/min for 180 seconds. Dissociation was monitored for 400 seconds. The chip was regenerated after the last injection of each titration with Glycine (pH 2.0), 30 μL/min for 30 seconds. For ISO control, an antibody targeting an irrelevant target protein was used.
(§3) As a person of ordinary skill in the art would understand, the same method with appropriate adjustments for parameters (e.g., antibody concentration) was performed for each tested antibody.

[6] = molecular target: T6, His-tagged 5T4 protein of monkey …; test: as above
Description: as §2, §3

[7] = molecular target: T7, His-tagged 5T4 protein of mouse (m5T4, …); test: as above
Description: as §2, §3

h5T4-His protein [8] = molecular target: T8, h5T4-His protein; test: epitope binding assay, h5T4-His captured; binder = analyte 2; competitor (analyte 1): 31G4
Description: (§4) Epitope binding assays were performed using ForteBio Octet system to determine whether two anti-5T4 antibodies target the same or overlapping epitopes. 1×HBS-EP+buffer (10 mM 4-(2-hydroxyethyl)-1-piperazineethanesulfonic acid (HEPES), 150 mM NaCl, 3 mM ethylenediaminetetraacetic acid (EDTA) and 0.05% P20, pH7.4) diluted from HBS-EP+buffer (10×) was used as the running buffer throughout the experiment. About 50 RU of h5T4-His protein was captured at a flow rate of 10 μL/min, and 200 nM of the tested antibody was injected at a flow rate of 30 μL/min to bind the ligand. Another comparison antibody was injected under the same conditions to determine whether the binding of different antibodies interfered with each other. The binding time was 180 s for each antibody.
(§5) The binding value of each antibody was obtained using Data Analysis HT 12.0. To quantify the interference of one antibody binding to another, a binding ratio was calculated to compare each pair of antibodies. The binding ratio is defined as the binding value of the second antibody (analyte 2), divided by the binding value of the first antibody (analyte 1). […] In general, antibody pairs that interfere with each other have the same or overlapping epitopes.

h5T4-His protein [9] = molecular target: T8, h5T4-His protein; test: epitope binding assay, h5T4-His captured; binder = analyte 2; competitor (analyte 1): 32E3
Description: as §4, §5

h5T4-His protein [10] = molecular target: T8, h5T4-His protein; test: epitope binding assay, h5T4-His captured; binder = analyte 2; competitor (analyte 1): 32G1
Description: as §4, §5

h5T4-His protein [11] = molecular target: T8, h5T4-His protein; test: epitope binding assay, h5T4-His captured; binder = analyte 2; competitor (analyte 1): 32G8
Description: as §4, §5

h5T4-His protein [12] = molecular target: T8, h5T4-His protein; test: epitope binding assay, h5T4-His captured; binder = analyte 2; competitor (analyte 1): 35C6
Description: as §4, §5

h5T4-His protein [13] = molecular target: T8, h5T4-His protein; test: epitope binding assay, h5T4-His captured; binder = analyte 2; competitor (analyte 1): 35B12
Description: as §4, §5

Percentage of Positive Cells [1] [%] | Percentage of Positive Cells [2] [%] | Percentage of Positive Cells [3] [%] | Percentage of Positive Cells [4] [%] | Kd [5] [nM] | koff [5] [s⁻¹] | kon [5] [M⁻¹ s⁻¹] | Kd [6] [nM] | koff [6] [s⁻¹] | kon [6] [M⁻¹ s⁻¹] | binding result [7] | binding ratio (h5T4-His protein [8]) | binding ratio (h5T4-His protein [9]) | binding ratio (h5T4-His protein [10]) | binding ratio (h5T4-His protein [11]) | binding ratio (h5T4-His protein [12]) | binding ratio (h5T4-His protein [13]) | Binder | also measured
1.1 | 79.3 | 1.4 | 58.8 | 2.68 | 0.000397 | 148000 | 10.1 | 0.00101 | 100000 | no binding (tested: 200 nM) | 0.04 | 1.01 | 1.04 | 1.01 | 1.05 | 1.01 | 31G4 (antibody, V domains shown, also called anti-5T4 antibody 31G4) VH: QVQLVQSGGGLVQPGGSLRLSCAASGFTFKSYWMHWVRQAPGKGLEWVSRINFDGSSITYADSVKGRFTISRDNAKNTLYLQMNSLSAEDTAVYYCARPLTYYEILTGFSQYFDFWGQGTLVTVSS VL: not shown | binding result [1]: no binding; binding result [3]: no binding
 |  |  |  | 22.5 | 0.00292 | 130000 | 55.1 | 0.00545 | 99000 | no binding (tested: 200 nM) |  |  |  |  |  |  | MAB2 analog-SI (antibody, V domains shown, MAB2 is a humanized IgG1 monoclonal antibody targeting 5T4) VH: QVQLQQPGAELVKPGASVKMSCKASGYTFTSYWITWVKQRPGQGLEWIGDIYPGSGRANYNEKFKSKATLTVDTSSSTAYMQLSSLTSEDSAVYNCARYGPLFTTVVDPNSYAMDYWGQGTSVTVSS VL: DVLMTQTPLSLPVSLGDQASISCRSSQSIVYSNGNTYLEWYLQKPGQSPKLLIYKVSNRFSGVPDRFSGSGSGTDFTLKISRVEAEDLGVYYCFQGSHVPFTFGSGTKLEIK | 
71.1 | 67.3 | 63.3 | 55.7 | 19.2 | 0.00315 | 164000 |  |  |  |  | 0.81 | 0.93 | 0.96 | 0.98 | 0.02 | 0.03 | 35C6 (antibody, V domains shown, also called anti-5T4 antibody 35C6) VH: QVQLVQSGGGLVQPGGSLRLSCAASGFTFSRNAMSWVRQAPGKGLEWVSAISGSGGSTHDADSVKGRFTISRDNSKNTLYLEMNSLRAEDTAVYYCAKDGYSSLWDYHYYGMDVWGQGTTVTVSS VL: not shown | Kd [7]: 1.31 nM; koff [7]: 0.000407 s⁻¹; kon [7]: 310000 M⁻¹ s⁻¹
